Laboratory results taken from patent US20210113605A1.
“And” between values parts separate entries of the source, which are not always exact repeats. Equal values may be shown once.

Molecular target: T1, human TACI (transmembrane activator and CAML interactor, TNFRSF13B) on Tregs, iTregs and Bregs (human) (UniProt O14836)
T1 sequence: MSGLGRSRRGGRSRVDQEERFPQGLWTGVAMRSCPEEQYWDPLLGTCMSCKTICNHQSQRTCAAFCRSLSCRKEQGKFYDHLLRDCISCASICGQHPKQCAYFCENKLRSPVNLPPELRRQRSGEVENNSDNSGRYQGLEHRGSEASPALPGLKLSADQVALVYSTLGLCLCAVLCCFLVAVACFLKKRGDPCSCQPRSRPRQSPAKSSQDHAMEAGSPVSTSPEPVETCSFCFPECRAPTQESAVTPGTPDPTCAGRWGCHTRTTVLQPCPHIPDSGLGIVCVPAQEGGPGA
Experiment: cell-based or functional assay

recombinant human APRIL (a proliferation-inducing ligand) (from UniProt O75888 105-250)
fold increase of MM cell-induced iTreg in CD4 T cells, against control media: > 1.5 fold and 1.5 to 4 fold
percent Breg (CD19+CD24highCD38high) in B cells of MM patient BMMCs: 25.2%
percent IL-10 production in Bregs of MM patient BMMCs: 29.2%
percent proliferative iTreg (CTV-Foxp3+) in cocultures with U266 MM cells, representative experiment: 13.4%
percent proliferative iTreg (CTV-Foxp3+) in cocultures with U266 MM cells, three experiments: 11.3%
percent proliferative iTreg (CTV-Foxp3+CD4+) in cocultures with U266 MM cells, additional representative experiment: 8.02%
